Experimental data reported in patent US20220041718A1 (AUTOLUS, published 2022).

Legend:
[1] = molecular target: T1, Recombinant purified TRBC2 (human, UniProt A0A5B9 1-129, limits assumed); assay: SPR, IgG captured on anti-human Fc, TRBC2 as analyte
T1 construct: Construct not described (may be a soluble TCR carrying TRBC2); also called TCR beta constant region 2; soluble recombinant biotinylated TRBC2
Description: (§1) A series S CM5 sensor chip was immobilised via amine coupling, with an anti-human Fc capture antibody to a density of 9000-10000 RU, using a Biacore T200 instrument. HBS-P+ buffer was used as running buffer in all experimental conditions. The test anti-TRBC2 antibodies (Table 1) were captured on flow cells 2, 3 and 4 to a density of 100-300 RU. Recombinant purified TRBC1 or TRBC2 at known concentrations were used as the ‘analyte’ and injected over the respective flow cells with 150s contact time and 300s dissociation at 30 μl/minute of flow rate. In each experiment, flow cell 1 was unmodified and used for reference subtraction. A ‘0 concentration’ sensorgram of buffer alone was used as a double reference subtraction to factor for drift. Data were fit to a 1:1 Langmuir binding model. Since a capture system was used, a local Rₘₐₓ parameter was used for the data fitting in each case.

[2] = molecular target: T2, Recombinant purified TRBC1 (human, UniProt P01850 1-129, limits assumed); assay: SPR, IgG captured on anti-human Fc, TRBC1 as analyte
T2 construct: Construct not described (may be a soluble TCR carrying TRBC1); also called TCR beta constant region 1; soluble recombinant biotinylated TRBC1
T2 sequence (P01850 1-129 limits assumed): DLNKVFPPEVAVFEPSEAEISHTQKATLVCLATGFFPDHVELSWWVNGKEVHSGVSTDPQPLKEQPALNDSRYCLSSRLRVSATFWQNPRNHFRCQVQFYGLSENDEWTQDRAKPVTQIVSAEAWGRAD
Description: as §1

T1 sequence (A0A5B9 1-129 limits assumed): as the sequence (P01850 1-129 limits assumed) above, with N3K, K4N, E9K, F36Y counted along it

Kd [1] [µM] | Kd [2] [µM] | Binder
0.187 | 0.707 | hJovi-1 variant IgG, VH N103L, T28K, Y32F, A100N; VL N35K (antibody, V domains shown, IgG format) VH: QVQLVQSGAEVKKPGASVKVSCKASGYKFTGFVMHWVRQAPGQGLEWMGFINPYNDDIQSNERFRGRVTMTRDTSISTAYMELSRLRSDDTAVYYCARGNGYLFDGAYRFFDFWGQGTMVTVSS VL: DIVMTQSPLSLPVTPGEPASISCRSSQRLVHSNGKTYLHWYLQKPGQSPRLLIYRVSNRFPGVPDRFSGSGSGTDFTLKISRVEAEDVGVYYCSQSTHVPYTFGQGTKLEIK
1.56 | 6.58 | hJovi-1 variant IgG, VH N103S, T28K, Y32F, A100N; VL N35F (antibody, V domains shown, IgG format) VH: QVQLVQSGAEVKKPGASVKVSCKASGYKFTGFVMHWVRQAPGQGLEWMGFINPYNDDIQSNERFRGRVTMTRDTSISTAYMELSRLRSDDTAVYYCARGNGYSFDGAYRFFDFWGQGTMVTVSS VL: DIVMTQSPLSLPVTPGEPASISCRSSQRLVHSNGFTYLHWYLQKPGQSPRLLIYRVSNRFPGVPDRFSGSGSGTDFTLKISRVEAEDVGVYYCSQSTHVPYTFGQGTKLEIK
0.39 | 1.73 | hJovi-1 variant IgG, VH N103W, T28K, Y32F, A100N; VL N35R (antibody, V domains shown, IgG format) VH: QVQLVQSGAEVKKPGASVKVSCKASGYKFTGFVMHWVRQAPGQGLEWMGFINPYNDDIQSNERFRGRVTMTRDTSISTAYMELSRLRSDDTAVYYCARGNGYWFDGAYRFFDFWGQGTMVTVSS VL: DIVMTQSPLSLPVTPGEPASISCRSSQRLVHSNGRTYLHWYLQKPGQSPRLLIYRVSNRFPGVPDRFSGSGSGTDFTLKISRVEAEDVGVYYCSQSTHVPYTFGQGTKLEIK
0.611 | 2.28 | hJovi-1 variant IgG, VH N103W, T28K, Y32F, A100N; VL N35M (antibody, V domains shown, IgG format) VH: QVQLVQSGAEVKKPGASVKVSCKASGYKFTGFVMHWVRQAPGQGLEWMGFINPYNDDIQSNERFRGRVTMTRDTSISTAYMELSRLRSDDTAVYYCARGNGYWFDGAYRFFDFWGQGTMVTVSS VL: DIVMTQSPLSLPVTPGEPASISCRSSQRLVHSNGMTYLHWYLQKPGQSPRLLIYRVSNRFPGVPDRFSGSGSGTDFTLKISRVEAEDVGVYYCSQSTHVPYTFGQGTKLEIK
0.417 | 1.68 | hJovi-1 variant IgG, VH N103W, T28K, Y32F, A100N; VL N35K (antibody, V domains shown, IgG format) VH: QVQLVQSGAEVKKPGASVKVSCKASGYKFTGFVMHWVRQAPGQGLEWMGFINPYNDDIQSNERFRGRVTMTRDTSISTAYMELSRLRSDDTAVYYCARGNGYWFDGAYRFFDFWGQGTMVTVSS VL: DIVMTQSPLSLPVTPGEPASISCRSSQRLVHSNGKTYLHWYLQKPGQSPRLLIYRVSNRFPGVPDRFSGSGSGTDFTLKISRVEAEDVGVYYCSQSTHVPYTFGQGTKLEIK
1.16 | 3.59 | hJovi-1 variant IgG, VH T28K, Y32F, A100N, A107S; VL unmutated (antibody, V domains shown, IgG format) VH: QVQLVQSGAEVKKPGASVKVSCKASGYKFTGFVMHWVRQAPGQGLEWMGFINPYNDDIQSNERFRGRVTMTRDTSISTAYMELSRLRSDDTAVYYCARGNGYNFDGSYRFFDFWGQGTMVTVSS VL: DIVMTQSPLSLPVTPGEPASISCRSSQRLVHSNGNTYLHWYLQKPGQSPRLLIYRVSNRFPGVPDRFSGSGSGTDFTLKISRVEAEDVGVYYCSQSTHVPYTFGQGTKLEIK
0.364 | 1.5 | hJovi-1 variant IgG, VH N103L, T28K, Y32F, A100N; VL N35M (antibody, V domains shown, IgG format) VH: QVQLVQSGAEVKKPGASVKVSCKASGYKFTGFVMHWVRQAPGQGLEWMGFINPYNDDIQSNERFRGRVTMTRDTSISTAYMELSRLRSDDTAVYYCARGNGYLFDGAYRFFDFWGQGTMVTVSS VL: DIVMTQSPLSLPVTPGEPASISCRSSQRLVHSNGMTYLHWYLQKPGQSPRLLIYRVSNRFPGVPDRFSGSGSGTDFTLKISRVEAEDVGVYYCSQSTHVPYTFGQGTKLEIK
0.917 | 3.93 | hJovi-1 variant IgG, VH N103S, T28K, Y32F, A100N; VL N35R (antibody, V domains shown, IgG format) VH: QVQLVQSGAEVKKPGASVKVSCKASGYKFTGFVMHWVRQAPGQGLEWMGFINPYNDDIQSNERFRGRVTMTRDTSISTAYMELSRLRSDDTAVYYCARGNGYSFDGAYRFFDFWGQGTMVTVSS VL: DIVMTQSPLSLPVTPGEPASISCRSSQRLVHSNGRTYLHWYLQKPGQSPRLLIYRVSNRFPGVPDRFSGSGSGTDFTLKISRVEAEDVGVYYCSQSTHVPYTFGQGTKLEIK
1.88 | 7.83 | hJovi-1 variant IgG, VH N103S, T28K, Y32F, A100N; VL N35Y (antibody, V domains shown, IgG format) VH: QVQLVQSGAEVKKPGASVKVSCKASGYKFTGFVMHWVRQAPGQGLEWMGFINPYNDDIQSNERFRGRVTMTRDTSISTAYMELSRLRSDDTAVYYCARGNGYSFDGAYRFFDFWGQGTMVTVSS VL: DIVMTQSPLSLPVTPGEPASISCRSSQRLVHSNGYTYLHWYLQKPGQSPRLLIYRVSNRFPGVPDRFSGSGSGTDFTLKISRVEAEDVGVYYCSQSTHVPYTFGQGTKLEIK
1.3 | 2.93 | hJovi-1 variant IgG, VH T28K, Y32F, A100N, N103E; VL unmutated (antibody, V domains shown, IgG format) VH: QVQLVQSGAEVKKPGASVKVSCKASGYKFTGFVMHWVRQAPGQGLEWMGFINPYNDDIQSNERFRGRVTMTRDTSISTAYMELSRLRSDDTAVYYCARGNGYEFDGAYRFFDFWGQGTMVTVSS VL: DIVMTQSPLSLPVTPGEPASISCRSSQRLVHSNGNTYLHWYLQKPGQSPRLLIYRVSNRFPGVPDRFSGSGSGTDFTLKISRVEAEDVGVYYCSQSTHVPYTFGQGTKLEIK
0.165 | 0.962 | hJovi-1 variant IgG, VH T28K Y32F A100N; VL R55K (antibody, V domains shown, IgG format) VH: QVQLVQSGAEVKKPGASVKVSCKASGYKFTGFVMHWVRQAPGQGLEWMGFINPYNDDIQSNERFRGRVTMTRDTSISTAYMELSRLRSDDTAVYYCARGNGYNFDGAYRFFDFWGQGTMVTVSS VL: DIVMTQSPLSLPVTPGEPASISCRSSQRLVHSNGNTYLHWYLQKPGQSPRLLIYKVSNRFPGVPDRFSGSGSGTDFTLKISRVEAEDVGVYYCSQSTHVPYTFGQGTKLEIK
1.83 | 8.22 | hJovi-1 variant IgG, VH N103S, T28K, Y32F, A100N; VL N35M (antibody, V domains shown, IgG format) VH: QVQLVQSGAEVKKPGASVKVSCKASGYKFTGFVMHWVRQAPGQGLEWMGFINPYNDDIQSNERFRGRVTMTRDTSISTAYMELSRLRSDDTAVYYCARGNGYSFDGAYRFFDFWGQGTMVTVSS VL: DIVMTQSPLSLPVTPGEPASISCRSSQRLVHSNGMTYLHWYLQKPGQSPRLLIYRVSNRFPGVPDRFSGSGSGTDFTLKISRVEAEDVGVYYCSQSTHVPYTFGQGTKLEIK
0.48 | 1.93 | hJovi-1 variant IgG, VH N103L, T28K, Y32F, A100N; VL N35Y (antibody, V domains shown, IgG format) VH: QVQLVQSGAEVKKPGASVKVSCKASGYKFTGFVMHWVRQAPGQGLEWMGFINPYNDDIQSNERFRGRVTMTRDTSISTAYMELSRLRSDDTAVYYCARGNGYLFDGAYRFFDFWGQGTMVTVSS VL: DIVMTQSPLSLPVTPGEPASISCRSSQRLVHSNGYTYLHWYLQKPGQSPRLLIYRVSNRFPGVPDRFSGSGSGTDFTLKISRVEAEDVGVYYCSQSTHVPYTFGQGTKLEIK
0.13 | 0.459 | hJovi-1 variant IgG, VH N103M, T28K, Y32F, A100N; VL N35F (antibody, V domains shown, IgG format) VH: QVQLVQSGAEVKKPGASVKVSCKASGYKFTGFVMHWVRQAPGQGLEWMGFINPYNDDIQSNERFRGRVTMTRDTSISTAYMELSRLRSDDTAVYYCARGNGYMFDGAYRFFDFWGQGTMVTVSS VL: DIVMTQSPLSLPVTPGEPASISCRSSQRLVHSNGFTYLHWYLQKPGQSPRLLIYRVSNRFPGVPDRFSGSGSGTDFTLKISRVEAEDVGVYYCSQSTHVPYTFGQGTKLEIK
0.201 | 0.81 | hJovi-1 variant IgG, VH N103L, T28K, Y32F, A100N; VL N35R (antibody, V domains shown, IgG format) VH: QVQLVQSGAEVKKPGASVKVSCKASGYKFTGFVMHWVRQAPGQGLEWMGFINPYNDDIQSNERFRGRVTMTRDTSISTAYMELSRLRSDDTAVYYCARGNGYLFDGAYRFFDFWGQGTMVTVSS VL: DIVMTQSPLSLPVTPGEPASISCRSSQRLVHSNGRTYLHWYLQKPGQSPRLLIYRVSNRFPGVPDRFSGSGSGTDFTLKISRVEAEDVGVYYCSQSTHVPYTFGQGTKLEIK
0.851 | 3.68 | hJovi-1 variant IgG, VH N103S, T28K, Y32F, A100N; VL N35K (antibody, V domains shown, IgG format) VH: QVQLVQSGAEVKKPGASVKVSCKASGYKFTGFVMHWVRQAPGQGLEWMGFINPYNDDIQSNERFRGRVTMTRDTSISTAYMELSRLRSDDTAVYYCARGNGYSFDGAYRFFDFWGQGTMVTVSS VL: DIVMTQSPLSLPVTPGEPASISCRSSQRLVHSNGKTYLHWYLQKPGQSPRLLIYRVSNRFPGVPDRFSGSGSGTDFTLKISRVEAEDVGVYYCSQSTHVPYTFGQGTKLEIK
0.714 | 3.39 | hJovi-1 variant IgG, VH T28K, Y32F, A100N, N103A; VL unmutated (antibody, V domains shown, IgG format) VH: QVQLVQSGAEVKKPGASVKVSCKASGYKFTGFVMHWVRQAPGQGLEWMGFINPYNDDIQSNERFRGRVTMTRDTSISTAYMELSRLRSDDTAVYYCARGNGYAFDGAYRFFDFWGQGTMVTVSS VL: DIVMTQSPLSLPVTPGEPASISCRSSQRLVHSNGNTYLHWYLQKPGQSPRLLIYRVSNRFPGVPDRFSGSGSGTDFTLKISRVEAEDVGVYYCSQSTHVPYTFGQGTKLEIK
0.51 | 1.68 | hJovi-1 variant IgG, VH N103W, T28K, Y32F, A100N; VL N35F (antibody, V domains shown, IgG format) VH: QVQLVQSGAEVKKPGASVKVSCKASGYKFTGFVMHWVRQAPGQGLEWMGFINPYNDDIQSNERFRGRVTMTRDTSISTAYMELSRLRSDDTAVYYCARGNGYWFDGAYRFFDFWGQGTMVTVSS VL: DIVMTQSPLSLPVTPGEPASISCRSSQRLVHSNGFTYLHWYLQKPGQSPRLLIYRVSNRFPGVPDRFSGSGSGTDFTLKISRVEAEDVGVYYCSQSTHVPYTFGQGTKLEIK
4.95 | 17.4 | hJovi-1 variant IgG, VH T28K, G31R, Y32F, A100N; VL unmutated (antibody, V domains shown, IgG format) VH: QVQLVQSGAEVKKPGASVKVSCKASGYKFTRFVMHWVRQAPGQGLEWMGFINPYNDDIQSNERFRGRVTMTRDTSISTAYMELSRLRSDDTAVYYCARGNGYNFDGAYRFFDFWGQGTMVTVSS VL: DIVMTQSPLSLPVTPGEPASISCRSSQRLVHSNGNTYLHWYLQKPGQSPRLLIYRVSNRFPGVPDRFSGSGSGTDFTLKISRVEAEDVGVYYCSQSTHVPYTFGQGTKLEIK
